Data on two molecules can be found in US20090175855A1 (Genentech, published 2009).

One experiment concerns the target T1, PRO87299(ECD)-Fc (human, UniProt Q7Z6A9 31-155, I-125 radiolabel in the cell binding assays (Table 7); residues not stated).
T1 construct: Extracellular domain (amino acids 1-155) ligated into a plasmid containing a human Fc domain; also called PRO87299-Fc; PRO87299(ECD)-Fc chimera; not shown: human Fc domain
T1 sequence: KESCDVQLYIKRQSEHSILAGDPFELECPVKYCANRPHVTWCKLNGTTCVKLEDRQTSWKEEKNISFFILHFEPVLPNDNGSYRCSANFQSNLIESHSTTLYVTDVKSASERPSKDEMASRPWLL
In words: Biacore; HVEM-Fc amine coupled to a CM5 chip at 150 RU, PRO87299-Fc 17 nM injected at 5 ul/min for 1200 s, alone and mixed with 25 nM LIGHT. (SPR reads the build-up and loss of mass on a sensor chip optically.)

The target in the next experiment is T2, hCD28-Fc (human, UniProt P10747 19-152, limits assumed).
T2 construct: Bought (R&D systems); not shown: Fc; not described
In words: Biacore; hCD28-Fc amine coupled to a CM5 chip, HVEM-Fc injected at 2 ug/ml and 5 ul/min.

The target in a further experiment is T3, hICOS-Fc (human, UniProt Q9Y6W8 21-141, limits assumed).
T3 construct: Bought (R&D systems); not shown: Fc; not described
T3 sequence (looked up): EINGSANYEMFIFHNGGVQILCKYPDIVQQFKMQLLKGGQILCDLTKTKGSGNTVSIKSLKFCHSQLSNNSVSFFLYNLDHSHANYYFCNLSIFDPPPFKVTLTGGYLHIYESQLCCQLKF
Nature of the experiment: Biacore; hICOS-Fc amine coupled to a CM5 chip, HVEM-Fc injected at 2 ug/ml and 5 ul/min.

Another experiment has as its target T4, hCTLA4-Fc (human, UniProt P16410 37-162, limits assumed).
T4 construct: Bought (R&D systems); not shown: Fc; not described
T4 sequence (looked up): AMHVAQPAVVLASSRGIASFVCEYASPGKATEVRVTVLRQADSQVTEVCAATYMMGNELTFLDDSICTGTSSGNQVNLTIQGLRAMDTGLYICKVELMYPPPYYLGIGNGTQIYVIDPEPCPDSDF
Nature of the experiment: Biacore; hCTLA4-Fc amine coupled to a CM5 chip, HVEM-Fc injected at 2 ug/ml and 5 ul/min.

A further experiment concerns the target T5, hPD-1-Fc (human, UniProt Q15116 25-167, limits assumed).
T5 construct: Bought (R&D systems); not shown: Fc; not described
In words: Biacore; hPD-1-Fc amine coupled to a CM5 chip, HVEM-Fc injected at 2 ug/ml and 5 ul/min.

Experiment [1] addresses T6, LIGHT expressed on transfected cells (Homo sapiens (Human), UniProt O43557 1-240).
T6 construct: also called Expressed protein LIGHT
Nature of the experiment: radioligand binding to transfected cells, Scatchard analysis.

Another experiment concerns the target T7, PRO87299 on cells (human, UniProt Q7Z6A9 31-289).
T7 construct: Used both for transfected cells and for the native protein on human primary B and CD4+ T cells; also called PRO87299 transfected cells; 293 cells expressing PRO87299
Described as above.

Experiment [2] has as its target T8, PRO87299/LIGHT (both expressed on the same cells) (human, UniProt Q7Z6A9 31-289; O43557 1-240).
T8 construct: also called Expressed protein PRO87299/LIGHT
In words: radioligand binding to cells expressing PRO87299/LIGHT, Scatchard analysis.

In experiment [3] the target is T9, HVEM expressed on transfected 293 cells (Homo sapiens (Human), UniProt Q92956 39-283).
T9 construct: also called HVEM transfected cells; 293 cells expressing HVEM
T9 sequence: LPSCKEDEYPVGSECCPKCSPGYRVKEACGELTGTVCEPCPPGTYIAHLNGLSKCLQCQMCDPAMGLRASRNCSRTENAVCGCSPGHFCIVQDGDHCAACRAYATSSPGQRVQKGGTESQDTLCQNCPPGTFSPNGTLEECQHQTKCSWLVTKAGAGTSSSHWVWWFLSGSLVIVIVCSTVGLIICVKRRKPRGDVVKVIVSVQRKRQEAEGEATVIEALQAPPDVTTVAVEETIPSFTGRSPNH
Nature of the experiment: radioligand binding to transfected cells, Scatchard analysis.

T2 sequence (P10747 19-152 limits assumed): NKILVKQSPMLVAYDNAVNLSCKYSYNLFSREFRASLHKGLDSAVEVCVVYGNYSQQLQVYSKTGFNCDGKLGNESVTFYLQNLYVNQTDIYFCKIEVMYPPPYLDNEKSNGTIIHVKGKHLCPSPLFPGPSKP
T5 sequence (Q15116 25-167 limits assumed): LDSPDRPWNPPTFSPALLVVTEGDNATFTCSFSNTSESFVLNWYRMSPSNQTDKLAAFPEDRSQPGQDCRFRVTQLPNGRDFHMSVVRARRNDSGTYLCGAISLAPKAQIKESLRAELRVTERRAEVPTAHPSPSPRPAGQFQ

B1: HVEM-Fc (Fc fusion)
chain: LPSCKEDEYPVGSECCPKCSPGYRVKEACGELTGTVCEPCPPGTYIAHLNGLSKCLQCQMCDPAMGLRASRNCSRTENAVCGCSPGHFCIVQDGDHCAACRAYATSSPGQRVQKGGTESQDTLCQNCPPGTFSPNGTLEECQHQTKCSWLVTKAGAGTSSS
modifications: I-125 radiolabel in the cell binding assays (Table 7); residues not stated
notes: also called I-125-HVEM-Fc; HVEM-Fc fusion protein; not shown: Fc
Consider B1, for which the binding result is “binds” with PRO87299(ECD)-Fc; “no binding (tested: 2 ug/ml)” in the experiment with hCD28-Fc; “no binding (tested: 2 ug/ml)” with hICOS-Fc; “no binding (tested: 2 ug/ml)” with hCTLA4-Fc; “no binding (tested: 2 ug/ml)” with hPD-1-Fc. Further, the values for the Kd (in experiment [1]; with PRO87299 on cells; in [2]) were 7 nM, 5.5 nM and 0.5 nM, respectively.

B2: LIGHT-FLAG (ligand)
chain: GEMVTRLPDGPAGSWEQLIQERRSHEVNPAAHLTGANSSLTGSGGPLLWETQLGLAFLRGLSYHDGALVVTKAGYYYIYSKVQLGGVGCPLGLASTITHGLYKRTPRYPEELELLVSQQSPCGRATSSSRVWWDSSFLGGVVHLEAGEEVVVRVLDERLVRLRDGTRSYFGAFMV
modifications: I-125 radiolabel; residues not stated
notes: also called I-125-LIGHT-FLAG; not shown: FLAG tag
Consider B2, for which the Kd in experiment [3] was 2.5 nM.

In general, Kd refers to a measure of binding affinity in units of concentration. Higher therefore signals weaker binding.
